Numbering of substitutions follows the chain as printed.
B1: SEMA4C, Q9C0C4 (peptide)
chain: PDSNPEESSV
B2: PLEKHG7, Q6ZR37 (peptide)
chain: FTLPAESSEI

What follows are binders tested against FRMPD3, Q5JV73 (assay: holdup assay). Conditions: plain residues with an end cap or a label only (N-terminal biotin on a linker: ado-ado).
Parameters: key: below the threshold = too weak to quantify, mostly under pKd 3.1 to 4

FRMPD3, Q5JV73, sequence (Q5JV73 12-100): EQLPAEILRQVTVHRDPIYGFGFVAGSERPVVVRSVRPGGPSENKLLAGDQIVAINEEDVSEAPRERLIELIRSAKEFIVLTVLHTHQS

Question: Which pKd does the source give for B1 here?
Answer: Its pKd is “below the threshold”.

Question: B2 was tested. Which pKd did it give?
Answer: Its pKd is “below the threshold”.

The binders below were run against LDB3, O75112 (assay: holdup assay). Conditions: plain residues with an end cap or a label only (N-terminal biotin on a linker: ado-ado).
LDB3, O75112, sequence (O75112 1-94): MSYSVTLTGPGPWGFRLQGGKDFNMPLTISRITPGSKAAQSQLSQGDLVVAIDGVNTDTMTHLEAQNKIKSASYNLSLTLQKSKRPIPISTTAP
Parameters: key: below the threshold = too weak to quantify, mostly under pKd 3.1 to 4

Question: For B1, which pKd is on record?
Answer: The pKd was “below the threshold”.

Question: B2 was tested. Which pKd did it give?
Answer: The pKd was “below the threshold”.

These binders were tested against ARHGEF12, Q9NZN5-2 (assay: holdup assay). Conditions: plain residues with an end cap or a label only (N-terminal biotin on a linker: ado-ado).
ARHGEF12, Q9NZN5-2, sequence (Q9NZN5 other isoform, or with tags, fused parts or gaps): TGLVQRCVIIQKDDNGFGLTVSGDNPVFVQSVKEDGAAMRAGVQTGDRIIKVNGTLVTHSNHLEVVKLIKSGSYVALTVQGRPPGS
Parameters: key: below the threshold = too weak to quantify, mostly under pKd 3.1 to 4

Question: B1 was tested. Which pKd did it give?
Answer: The pKd was 3.71.

Question: B2 was tested. Which pKd did it give?
Answer: The pKd was 4.18.

Each binder was assayed against IL16_4, Q14005 (assay: holdup assay). Conditions: plain residues with an end cap or a label only (N-terminal biotin on a linker: ado-ado).
IL16_4, Q14005, sequence (Q14005 1229-1329): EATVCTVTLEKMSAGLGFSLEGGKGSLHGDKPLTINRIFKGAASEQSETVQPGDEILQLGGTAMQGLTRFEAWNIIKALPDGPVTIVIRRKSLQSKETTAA
Parameters: key: below the threshold = too weak to quantify, mostly under pKd 3.1 to 4

Question: Which pKd does the source give for B1 here?
Answer: The pKd was “below the threshold”.

Question: B2 was tested. Which pKd did it give?
Answer: The pKd was “below the threshold”.

The binders below were run against T1, MPDZ_5, O75970 (assay: holdup assay). Conditions: plain residues with an end cap or a label only (N-terminal biotin on a linker: ado-ado).
T1 sequence (O75970 695-796, limits assumed, looked up): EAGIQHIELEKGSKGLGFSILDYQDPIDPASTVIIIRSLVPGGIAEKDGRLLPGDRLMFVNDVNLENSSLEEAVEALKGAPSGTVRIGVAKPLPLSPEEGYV
Parameters: key: below the threshold = too weak to quantify, mostly under pKd 3.1 to 4

Question: B1 was tested. Which pKd did it give?
Answer: Its pKd is “below the threshold”.

Question: With B2 as the binder, how does the pKd read?
Answer: Its pKd is “below the threshold”.

These binders were tested against DLG1_1, Q12959 (assay: holdup assay). Conditions: plain residues with an end cap or a label only (N-terminal biotin on a linker: ado-ado).
Parameters: key: below the threshold = too weak to quantify, mostly under pKd 3.1 to 4

Question: How did the pKd turn out when B1 was run?
Answer: Its pKd is 3.74.

Question: How did the pKd turn out when B2 was run?
Answer: The pKd was “below the threshold”.

These binders were tested against T2, PDZD7_3, Q9H5P4 (assay: holdup assay). Conditions: plain residues with an end cap or a label only (N-terminal biotin on a linker: ado-ado).
T2 sequence (Q9H5P4 857-944, limits assumed, looked up): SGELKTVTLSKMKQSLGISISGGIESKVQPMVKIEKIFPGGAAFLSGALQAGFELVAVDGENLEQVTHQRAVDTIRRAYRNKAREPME
Parameters: key: below the threshold = too weak to quantify, mostly under pKd 3.1 to 4

Question: How did the pKd turn out when B1 was run?
Answer: The pKd was 3.9.

Question: How did the pKd turn out when B2 was run?
Answer: Its pKd is 3.97.

What follows are binders tested against DLG4_3, P78352 (assay: holdup assay). Conditions: plain residues with an end cap or a label only (N-terminal biotin on a linker: ado-ado).
DLG4_3, P78352, sequence (P78352 306-403): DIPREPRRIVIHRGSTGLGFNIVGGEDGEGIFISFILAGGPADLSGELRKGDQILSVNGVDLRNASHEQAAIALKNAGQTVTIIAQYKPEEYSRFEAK
Parameters: key: below the threshold = too weak to quantify, mostly under pKd 3.1 to 4

Question: With B1 as the binder, how does the pKd read?
Answer: The pKd was “below the threshold”.

Question: B2 was tested. Which pKd did it give?
Answer: The pKd was “below the threshold”.

These binders were tested against T3, NHERF3_3, Q5T2W1 (assay: holdup assay). Conditions: plain residues with an end cap or a label only (N-terminal biotin on a linker: ado-ado).
T3 sequence (Q5T2W1 238-333, limits assumed, looked up): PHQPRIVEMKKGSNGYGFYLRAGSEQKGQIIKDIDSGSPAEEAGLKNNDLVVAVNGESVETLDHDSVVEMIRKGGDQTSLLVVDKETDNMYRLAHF
Parameters: key: below the threshold = too weak to quantify, mostly under pKd 3.1 to 4

Question: Which pKd does the source give for B1 here?
Answer: Its pKd is “below the threshold”.

Question: For B2, which pKd is on record?
Answer: The pKd was “below the threshold”.

Each binder was assayed against Inadl_5, Q8NI35 (assay: holdup assay). Conditions: plain residues with an end cap or a label only (N-terminal biotin on a linker: ado-ado).
Inadl_5, Q8NI35, sequence (Q8NI35 673-780): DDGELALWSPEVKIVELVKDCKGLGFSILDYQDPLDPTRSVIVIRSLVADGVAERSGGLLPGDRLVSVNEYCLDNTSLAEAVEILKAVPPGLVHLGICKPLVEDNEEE
Parameters: key: below the threshold = too weak to quantify, mostly under pKd 3.1 to 4

Question: B1 was tested. Which pKd did it give?
Answer: The pKd was “below the threshold”.

Question: With B2 as the binder, how does the pKd read?
Answer: The pKd was “below the threshold”.

Each binder was assayed against LAP2, Q96RT1 (assay: holdup assay). Conditions: plain residues with an end cap or a label only (N-terminal biotin on a linker: ado-ado).
LAP2, Q96RT1, sequence (Q96RT1 other isoform, or with tags, fused parts or gaps): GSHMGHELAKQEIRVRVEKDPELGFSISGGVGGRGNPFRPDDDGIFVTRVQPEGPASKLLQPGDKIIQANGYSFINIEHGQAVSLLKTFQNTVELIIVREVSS
Parameters: key: below the threshold = too weak to quantify, mostly under pKd 3.1 to 4

Question: How did the pKd turn out when B1 was run?
Answer: Its pKd is 4.46.

Question: Which pKd does the source give for B2 here?
Answer: Its pKd is “below the threshold”.

The binders below were run against MAGI2_3, Q86UL8 (assay: holdup assay). Conditions: plain residues with an end cap or a label only (N-terminal biotin on a linker: ado-ado).
MAGI2_3, Q86UL8, sequence (Q86UL8 600-682): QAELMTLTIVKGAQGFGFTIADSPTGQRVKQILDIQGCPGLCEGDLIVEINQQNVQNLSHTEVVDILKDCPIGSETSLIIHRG
Parameters: key: below the threshold = too weak to quantify, mostly under pKd 3.1 to 4

Question: With B1 as the binder, how does the pKd read?
Answer: The pKd was “below the threshold”.

Question: Which pKd does the source give for B2 here?
Answer: The pKd was “below the threshold”.

These binders were tested against HTRA1, Q92743 (assay: holdup assay). Conditions: plain residues with an end cap or a label only (N-terminal biotin on a linker: ado-ado).
HTRA1, Q92743, sequence (Q92743 360-477): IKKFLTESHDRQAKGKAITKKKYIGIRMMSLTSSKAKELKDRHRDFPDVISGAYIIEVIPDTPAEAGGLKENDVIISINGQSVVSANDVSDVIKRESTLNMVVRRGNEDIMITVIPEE
Parameters: key: below the threshold = too weak to quantify, mostly under pKd 3.1 to 4

Question: For B1, which pKd is on record?
Answer: Its pKd is 3.85.

Question: With B2 as the binder, how does the pKd read?
Answer: Its pKd is 3.52.

These binders were tested against PDZRN4_1, Q6ZMN7 (assay: holdup assay). Conditions: plain residues with an end cap or a label only (N-terminal biotin on a linker: ado-ado).
PDZRN4_1, Q6ZMN7, sequence (Q6ZMN7 213-318): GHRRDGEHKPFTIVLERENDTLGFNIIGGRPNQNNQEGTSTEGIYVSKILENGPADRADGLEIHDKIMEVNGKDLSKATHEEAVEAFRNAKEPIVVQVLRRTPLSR
Parameters: key: below the threshold = too weak to quantify, mostly under pKd 3.1 to 4

Question: With B1 as the binder, how does the pKd read?
Answer: The pKd was 4.43.

Question: For B2, which pKd is on record?
Answer: The pKd was “below the threshold”.

What follows are binders tested against T4, GRIP1_4, Q9Y3R0 (assay: holdup assay). Conditions: plain residues with an end cap or a label only (N-terminal biotin on a linker: ado-ado).
T4 sequence (Q9Y3R0 467-571, limits assumed, looked up): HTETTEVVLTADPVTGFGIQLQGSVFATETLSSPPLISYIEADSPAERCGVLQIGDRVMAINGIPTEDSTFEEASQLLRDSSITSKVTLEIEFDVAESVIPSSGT
Parameters: key: below the threshold = too weak to quantify, mostly under pKd 3.1 to 4

Question: For B1, which pKd is on record?
Answer: Its pKd is “below the threshold”.

Question: Which pKd does the source give for B2 here?
Answer: Its pKd is “below the threshold”.

What follows are binders tested against T5, LIN7B, Q9HAP6 (assay: holdup assay). Conditions: plain residues with an end cap or a label only (N-terminal biotin on a linker: ado-ado).
T5 sequence (Q9HAP6 88-185, limits assumed, looked up): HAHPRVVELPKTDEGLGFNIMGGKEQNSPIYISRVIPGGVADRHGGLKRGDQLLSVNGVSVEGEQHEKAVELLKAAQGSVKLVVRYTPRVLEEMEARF
Parameters: key: below the threshold = too weak to quantify, mostly under pKd 3.1 to 4

Question: B1 was tested. Which pKd did it give?
Answer: Its pKd is “below the threshold”.

Question: For B2, which pKd is on record?
Answer: Its pKd is 3.61.

What follows are binders tested against T6, HTRA3, P83110 (assay: holdup assay). Conditions: plain residues with an end cap or a label only (N-terminal biotin on a linker: ado-ado).
T6 sequence (P83110 354-453, limits assumed, looked up): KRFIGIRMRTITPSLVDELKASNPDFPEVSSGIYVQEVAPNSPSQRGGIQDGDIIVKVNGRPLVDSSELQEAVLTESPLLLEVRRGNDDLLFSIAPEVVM
Parameters: key: below the threshold = too weak to quantify, mostly under pKd 3.1 to 4

Question: With B1 as the binder, how does the pKd read?
Answer: The pKd was “below the threshold”.

Question: With B2 as the binder, how does the pKd read?
Answer: The pKd was “below the threshold”.

These binders were tested against MAGI2_4, Q86UL8 (assay: holdup assay). Conditions: plain residues with an end cap or a label only (N-terminal biotin on a linker: ado-ado).
MAGI2_4, Q86UL8, sequence (Q86UL8 772-865): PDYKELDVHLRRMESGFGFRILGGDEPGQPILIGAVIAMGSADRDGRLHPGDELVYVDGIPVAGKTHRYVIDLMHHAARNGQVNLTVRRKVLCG
Parameters: key: below the threshold = too weak to quantify, mostly under pKd 3.1 to 4

Question: With B1 as the binder, how does the pKd read?
Answer: The pKd was “below the threshold”.

Question: How did the pKd turn out when B2 was run?
Answer: Its pKd is “below the threshold”.

The binders below were run against T7, LIN7C, Q9NUP9 (assay: holdup assay). Conditions: plain residues with an end cap or a label only (N-terminal biotin on a linker: ado-ado).
T7 sequence (Q9NUP9 88-185, limits assumed, looked up): T5 sequence (Q9HAP6 88-185, limits assumed, looked up) with A2S, D13E, V35I, V40I, Q65H, S79K, R89K, A96S
Parameters: key: below the threshold = too weak to quantify, mostly under pKd 3.1 to 4

Question: With B1 as the binder, how does the pKd read?
Answer: The pKd was 3.56.

Question: With B2 as the binder, how does the pKd read?
Answer: Its pKd is “below the threshold”.

What follows are binders tested against Inadl_10, Q8NI35 (assay: holdup assay). Conditions: plain residues with an end cap or a label only (N-terminal biotin on a linker: ado-ado).
Inadl_10, Q8NI35, sequence (Q8NI35 1673-1763): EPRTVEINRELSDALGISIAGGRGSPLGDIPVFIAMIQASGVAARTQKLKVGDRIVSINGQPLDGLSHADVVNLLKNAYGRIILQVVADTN
Parameters: key: below the threshold = too weak to quantify, mostly under pKd 3.1 to 4

Question: For B1, which pKd is on record?
Answer: The pKd was “below the threshold”.

Question: Which pKd does the source give for B2 here?
Answer: The pKd was “below the threshold”.

What follows are binders tested against IL16_1, Q14005 (assay: holdup assay). Conditions: plain residues with an end cap or a label only (N-terminal biotin on a linker: ado-ado).
IL16_1, Q14005, sequence (Q14005 210-306): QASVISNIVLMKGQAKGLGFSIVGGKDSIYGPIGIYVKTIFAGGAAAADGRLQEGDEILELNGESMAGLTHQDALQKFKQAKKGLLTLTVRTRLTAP
Parameters: key: below the threshold = too weak to quantify, mostly under pKd 3.1 to 4

Question: How did the pKd turn out when B1 was run?
Answer: Its pKd is 4.49.

Question: With B2 as the binder, how does the pKd read?
Answer: Its pKd is “below the threshold”.

The binders below were run against T8, APBA2_2, Q99767 (assay: holdup assay). Conditions: plain residues with an end cap or a label only (N-terminal biotin on a linker: ado-ado).
T8 sequence (Q99767 654-744, limits assumed, looked up): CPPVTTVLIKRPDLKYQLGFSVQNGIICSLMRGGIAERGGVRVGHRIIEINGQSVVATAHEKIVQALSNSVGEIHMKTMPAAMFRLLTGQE
Parameters: key: below the threshold = too weak to quantify, mostly under pKd 3.1 to 4

Question: How did the pKd turn out when B1 was run?
Answer: The pKd was “below the threshold”.

Question: How did the pKd turn out when B2 was run?
Answer: Its pKd is “below the threshold”.

What follows are binders tested against DLG4_2, P78352 (assay: holdup assay). Conditions: plain residues with an end cap or a label only (N-terminal biotin on a linker: ado-ado).
DLG4_2, P78352, sequence (P78352 155-259): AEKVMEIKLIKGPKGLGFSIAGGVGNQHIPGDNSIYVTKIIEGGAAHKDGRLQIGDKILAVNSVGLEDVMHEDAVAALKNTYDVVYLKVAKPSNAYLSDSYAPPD
Parameters: key: below the threshold = too weak to quantify, mostly under pKd 3.1 to 4

Question: How did the pKd turn out when B1 was run?
Answer: Its pKd is 4.22.

Question: How did the pKd turn out when B2 was run?
Answer: Its pKd is “below the threshold”.

What follows are binders tested against PDLIM1, O00151 (assay: holdup assay). Conditions: plain residues with an end cap or a label only (N-terminal biotin on a linker: ado-ado).
PDLIM1, O00151, sequence (O00151 1-87): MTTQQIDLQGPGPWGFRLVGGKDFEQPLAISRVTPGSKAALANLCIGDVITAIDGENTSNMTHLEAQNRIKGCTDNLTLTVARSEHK
Parameters: key: below the threshold = too weak to quantify, mostly under pKd 3.1 to 4

Question: Which pKd does the source give for B1 here?
Answer: Its pKd is 3.54.

Question: Which pKd does the source give for B2 here?
Answer: Its pKd is “below the threshold”.

Each binder was assayed against LNX1_3, Q8TBB1 (assay: holdup assay). Conditions: plain residues with an end cap or a label only (N-terminal biotin on a linker: ado-ado).
LNX1_3, Q8TBB1, sequence (Q8TBB1 500-596): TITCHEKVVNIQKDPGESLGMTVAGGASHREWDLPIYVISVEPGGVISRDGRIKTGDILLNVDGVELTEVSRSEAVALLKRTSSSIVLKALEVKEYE
Parameters: key: below the threshold = too weak to quantify, mostly under pKd 3.1 to 4

Question: How did the pKd turn out when B1 was run?
Answer: Its pKd is “below the threshold”.

Question: B2 was tested. Which pKd did it give?
Answer: Its pKd is “below the threshold”.

What follows are binders tested against T9, APBA3_1, O96018 (assay: holdup assay). Conditions: plain residues with an end cap or a label only (N-terminal biotin on a linker: ado-ado).
T9 sequence (O96018 389-490, limits assumed, looked up): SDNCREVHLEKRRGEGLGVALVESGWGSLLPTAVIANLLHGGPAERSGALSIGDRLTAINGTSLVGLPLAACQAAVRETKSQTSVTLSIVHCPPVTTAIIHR
Parameters: key: below the threshold = too weak to quantify, mostly under pKd 3.1 to 4

Question: Which pKd does the source give for B1 here?
Answer: Its pKd is “below the threshold”.

Question: B2 was tested. Which pKd did it give?
Answer: Its pKd is “below the threshold”.

Each binder was assayed against GRIP2_7, Q9C0E4 (assay: holdup assay). Conditions: plain residues with an end cap or a label only (N-terminal biotin on a linker: ado-ado).
GRIP2_7, Q9C0E4, sequence (Q9C0E4 934-1023): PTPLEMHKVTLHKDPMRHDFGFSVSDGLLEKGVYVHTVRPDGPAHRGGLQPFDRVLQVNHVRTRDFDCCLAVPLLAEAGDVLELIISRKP
Parameters: key: below the threshold = too weak to quantify, mostly under pKd 3.1 to 4

Question: How did the pKd turn out when B1 was run?
Answer: The pKd was “below the threshold”.

Question: Which pKd does the source give for B2 here?
Answer: Its pKd is “below the threshold”.

Each binder was assayed against AHNAK1, Q09666 (assay: holdup assay). Conditions: plain residues with an end cap or a label only (N-terminal biotin on a linker: ado-ado).
AHNAK1, Q09666, sequence (Q09666 4-100): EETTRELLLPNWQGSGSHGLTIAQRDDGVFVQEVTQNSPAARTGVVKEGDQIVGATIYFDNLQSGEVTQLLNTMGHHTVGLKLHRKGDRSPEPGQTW
Parameters: key: below the threshold = too weak to quantify, mostly under pKd 3.1 to 4

Question: B1 was tested. Which pKd did it give?
Answer: Its pKd is “below the threshold”.

Question: B2 was tested. Which pKd did it give?
Answer: The pKd was “below the threshold”.

What follows are binders tested against DLG2_2, Q15700 (assay: holdup assay). Conditions: plain residues with an end cap or a label only (N-terminal biotin on a linker: ado-ado).
DLG2_2, Q15700, sequence (Q15700 189-283): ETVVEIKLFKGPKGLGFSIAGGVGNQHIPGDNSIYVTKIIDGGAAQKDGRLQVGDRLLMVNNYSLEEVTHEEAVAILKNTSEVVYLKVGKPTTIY
Parameters: key: below the threshold = too weak to quantify, mostly under pKd 3.1 to 4

Question: For B1, which pKd is on record?
Answer: The pKd was 3.85.

Question: B2 was tested. Which pKd did it give?
Answer: Its pKd is “below the threshold”.
